How the values were obtained:
Assay in all cases: AVEXIS screen signal:noise (double-corrected)
[1] = target: ADP326
[2] = target: T1, ADP375
T1 chain: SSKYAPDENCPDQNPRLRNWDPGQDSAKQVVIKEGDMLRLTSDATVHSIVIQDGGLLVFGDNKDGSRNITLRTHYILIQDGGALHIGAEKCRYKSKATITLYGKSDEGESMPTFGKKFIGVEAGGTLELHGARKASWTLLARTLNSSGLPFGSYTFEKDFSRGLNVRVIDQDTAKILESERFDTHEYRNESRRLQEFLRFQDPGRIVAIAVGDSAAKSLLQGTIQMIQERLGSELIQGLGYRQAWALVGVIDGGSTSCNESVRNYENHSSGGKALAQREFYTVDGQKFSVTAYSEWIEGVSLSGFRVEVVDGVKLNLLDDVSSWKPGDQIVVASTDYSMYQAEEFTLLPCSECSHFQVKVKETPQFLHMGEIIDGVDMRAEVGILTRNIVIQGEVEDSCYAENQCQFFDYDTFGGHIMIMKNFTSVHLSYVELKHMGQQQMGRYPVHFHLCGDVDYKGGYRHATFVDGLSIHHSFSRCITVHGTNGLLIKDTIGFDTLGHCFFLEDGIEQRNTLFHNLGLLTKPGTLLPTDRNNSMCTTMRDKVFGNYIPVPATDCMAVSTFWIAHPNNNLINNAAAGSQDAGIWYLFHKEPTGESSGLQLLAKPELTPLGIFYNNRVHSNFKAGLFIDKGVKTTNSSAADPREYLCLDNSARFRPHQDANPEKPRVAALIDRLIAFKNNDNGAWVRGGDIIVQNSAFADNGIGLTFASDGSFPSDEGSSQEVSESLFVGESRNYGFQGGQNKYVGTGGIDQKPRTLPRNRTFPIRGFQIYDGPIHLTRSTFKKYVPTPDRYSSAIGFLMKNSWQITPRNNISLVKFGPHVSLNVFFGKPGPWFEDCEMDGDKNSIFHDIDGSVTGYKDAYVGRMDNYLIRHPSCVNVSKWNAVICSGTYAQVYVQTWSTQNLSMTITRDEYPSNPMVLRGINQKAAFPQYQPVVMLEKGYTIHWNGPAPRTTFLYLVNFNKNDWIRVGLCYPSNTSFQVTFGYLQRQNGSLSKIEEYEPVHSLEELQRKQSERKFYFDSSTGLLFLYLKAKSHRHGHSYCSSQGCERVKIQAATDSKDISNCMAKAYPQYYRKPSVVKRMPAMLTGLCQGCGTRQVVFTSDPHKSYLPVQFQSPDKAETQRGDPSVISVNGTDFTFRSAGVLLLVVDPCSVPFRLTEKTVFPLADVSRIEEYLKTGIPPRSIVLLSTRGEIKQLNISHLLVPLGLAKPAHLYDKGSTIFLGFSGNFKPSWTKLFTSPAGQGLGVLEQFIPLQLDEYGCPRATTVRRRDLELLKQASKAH

[3] = target: T2, ADP320
T2 chain: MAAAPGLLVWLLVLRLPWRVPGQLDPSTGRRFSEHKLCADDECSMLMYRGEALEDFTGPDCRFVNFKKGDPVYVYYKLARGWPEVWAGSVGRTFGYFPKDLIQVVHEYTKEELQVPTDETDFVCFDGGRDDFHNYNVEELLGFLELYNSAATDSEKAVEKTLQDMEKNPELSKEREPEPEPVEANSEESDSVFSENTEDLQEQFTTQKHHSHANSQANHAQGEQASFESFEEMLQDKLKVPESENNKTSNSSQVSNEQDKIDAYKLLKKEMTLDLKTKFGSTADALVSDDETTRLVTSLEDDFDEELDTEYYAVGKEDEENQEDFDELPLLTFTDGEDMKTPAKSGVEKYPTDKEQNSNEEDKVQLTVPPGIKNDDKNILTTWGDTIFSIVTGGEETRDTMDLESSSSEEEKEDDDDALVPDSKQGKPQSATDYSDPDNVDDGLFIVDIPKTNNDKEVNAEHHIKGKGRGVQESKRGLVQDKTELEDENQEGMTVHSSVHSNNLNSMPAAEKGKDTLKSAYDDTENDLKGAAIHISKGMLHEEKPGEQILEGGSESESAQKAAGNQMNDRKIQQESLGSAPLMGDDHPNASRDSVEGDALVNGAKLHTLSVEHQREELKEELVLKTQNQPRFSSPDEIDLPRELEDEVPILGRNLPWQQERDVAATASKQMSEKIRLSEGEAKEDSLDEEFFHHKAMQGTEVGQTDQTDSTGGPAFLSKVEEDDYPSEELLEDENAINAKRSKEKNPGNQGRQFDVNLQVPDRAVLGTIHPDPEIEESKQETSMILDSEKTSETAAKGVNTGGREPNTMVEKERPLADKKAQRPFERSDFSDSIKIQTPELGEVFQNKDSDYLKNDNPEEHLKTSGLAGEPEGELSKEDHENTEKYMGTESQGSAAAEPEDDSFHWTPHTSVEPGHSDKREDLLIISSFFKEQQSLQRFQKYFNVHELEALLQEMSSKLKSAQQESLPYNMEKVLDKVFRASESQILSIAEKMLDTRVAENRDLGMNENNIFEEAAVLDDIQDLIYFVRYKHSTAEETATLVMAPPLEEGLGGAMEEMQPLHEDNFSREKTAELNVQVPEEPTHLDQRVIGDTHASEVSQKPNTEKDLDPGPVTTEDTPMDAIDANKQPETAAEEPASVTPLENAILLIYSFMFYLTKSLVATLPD

B1: ADP193 (protein)
chain: GEEKLTKFDPVMIKEGELFGEVSYDCEYSGFLEIENDDILYYCFFVGEDDHNGLLLRKFHMDDMVWGIPMEVLITRKKINLYILTVDYILSKLILIYSFDEKIRITVFNNYMEESVMSEKISINYEILYKANMISYITYFYKNKKSLCVCGMNRNENILCTFSFDYGLTMKDDHTIEFFLKKKIPLGHYKMQVTFKETEVYFNLYNDLNEANFYELKCVKKQDEYICDIMNKIRETQEYNYKRYTYPSSEHNKYYNDHHNKQPQGKQGQQGGAPLPNLGEEENNFIYKHIVRNKYFQMIVFQKDQKCYLAWSFNSLNINDEITKEISSVPCSNVASYYRQERLIVTLKKNQLGSRNHFFLIYEKLTEKGVGCEFGVGGSLYVTKTFMNNACDMDINNMNVATTNYDEINFALIIPLSFQLNYATCFIWEENVDNNEERSSLYYLEEYTNEKEDIKVYTFYFYKYILIYKNFKKSTCTFESKNNEKLYISFRGDTYYKEYNCNILLDSCDFFLHTQSKINIAYDDDVWQVSEELYDGFVMYNGAYVSLYDVLSRSNAHGLIYIDGKENNAAINLNNIKNNNNNNNNNNNNNNAANNNNIANNANSNNAFGEHEKVITIIIPYGIPSTRTIKIEFLNKQNNEEKRWAYLRLQKNEYIMKKVIGINSADIFDLSYKYYKYNQEKIKFILNDFSETTYLGFICQTKEEIKKSLCTISLVDHSHKNMAINNLFKTNNHILPFLYDQSPPRKIQPYNQIISEFRFVLFKNFHLFLQENKINYILLKCMCSSSSSYINTQKNIELSYLITNEQVSHDFIHTPGILIRPRTNIAHNDYQKNNKGNHKGNNKANNKANDKDSNNNANNNANKNGNNHNDNNNNNQNKDIDINSNYAIHNNNEKVKRTKKKINDAPYDKQDEELPSYDFNDLLHEKKNGASVFDFNFVLFLFICITFF
modifications: bait human Fc-tagged dimer; N-glycosylation sequons mutated in Plasmodium baits
Q: What does the source list for B1?
A: binding score [1]: 9.3; binding score [2]: 8.14; binding score [3]: 7.53

Reference: paper PMC11098746 (2024)
